Earlier results in PMC9369280.

Legend:
Assay in all cases: SPR
FGF-2 (Homo sapiens) = FGF-2 (Homo sapiens) (UniProt P09038)
FGF-1 (Homo sapiens) = FGF-1 (Homo sapiens) (UniProt P05230)
FGFR2 (Homo sapiens) = FGFR2 (Homo sapiens) (UniProt P21802)
UniProt P21802, sequence (P21802 22-377): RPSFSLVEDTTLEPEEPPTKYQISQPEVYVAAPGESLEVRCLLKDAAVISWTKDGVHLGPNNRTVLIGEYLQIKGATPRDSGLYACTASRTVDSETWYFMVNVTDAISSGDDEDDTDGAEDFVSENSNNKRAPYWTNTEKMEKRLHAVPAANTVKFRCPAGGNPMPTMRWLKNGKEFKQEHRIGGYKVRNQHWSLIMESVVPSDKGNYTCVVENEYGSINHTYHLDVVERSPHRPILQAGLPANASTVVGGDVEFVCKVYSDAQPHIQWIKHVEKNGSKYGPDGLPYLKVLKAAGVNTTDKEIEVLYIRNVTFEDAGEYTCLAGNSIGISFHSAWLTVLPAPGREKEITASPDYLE

UniProt P05230, sequence (P05230 16-155): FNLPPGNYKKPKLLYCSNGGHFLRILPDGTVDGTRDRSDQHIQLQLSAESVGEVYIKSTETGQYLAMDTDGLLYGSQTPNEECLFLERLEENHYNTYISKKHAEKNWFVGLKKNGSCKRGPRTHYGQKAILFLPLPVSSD
UniProt P09038, sequence (P09038 143-288): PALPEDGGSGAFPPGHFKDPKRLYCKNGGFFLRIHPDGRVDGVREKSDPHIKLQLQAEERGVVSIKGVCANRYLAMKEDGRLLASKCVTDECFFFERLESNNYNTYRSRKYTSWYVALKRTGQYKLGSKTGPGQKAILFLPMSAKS

Kd (FGF-2 (Homo sapiens)): 5.5 nM
Kd (FGF-1 (Homo sapiens)): 3.98 nM
Kd (FGFR2 (Homo sapiens)): 7.91 nM
Substance: CCN2 (from UniProt P29279)
